Measured values from patent US20260234242A1 (HAINAN SIMCERE ZAIMING PHARMACEUTICAL, published 2026).
Changes are numbered by the printed parent chain.

How the values were obtained:
[1] = biological target: T1, his-tagged human CDH6 extracellular region protein (hCDH6 ECD-his) (human, UniProt P55285 19-615); test: ELISA, coated antigen
T1 construct: also called Human CDH6-his; hCDH6-his; not shown: his tag
T1 sequence: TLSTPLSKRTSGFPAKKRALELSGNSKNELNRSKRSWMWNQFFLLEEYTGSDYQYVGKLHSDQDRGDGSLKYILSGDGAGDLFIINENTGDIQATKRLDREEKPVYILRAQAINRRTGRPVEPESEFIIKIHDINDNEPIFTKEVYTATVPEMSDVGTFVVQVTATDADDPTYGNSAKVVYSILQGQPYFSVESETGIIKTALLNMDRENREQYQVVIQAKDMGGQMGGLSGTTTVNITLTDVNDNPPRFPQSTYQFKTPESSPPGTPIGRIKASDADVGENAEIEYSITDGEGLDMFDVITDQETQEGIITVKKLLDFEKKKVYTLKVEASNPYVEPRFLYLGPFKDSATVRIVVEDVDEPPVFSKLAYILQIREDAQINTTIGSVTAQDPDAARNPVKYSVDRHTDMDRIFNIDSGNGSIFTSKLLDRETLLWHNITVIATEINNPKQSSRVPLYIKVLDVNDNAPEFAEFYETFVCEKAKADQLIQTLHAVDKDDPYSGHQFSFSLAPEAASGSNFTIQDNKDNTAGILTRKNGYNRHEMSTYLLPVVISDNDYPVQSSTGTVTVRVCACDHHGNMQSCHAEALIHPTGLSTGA
Procedure: (§1) Human CDH6 protein (hCDH6 ECD-his, conventionally synthesized), monkey CDH6 protein (cynoCDH6 ECD-his, conventionally synthesized; the cynoCDH6 ECD sequence was derived from Uniprot #A0A2K5TW62 (19-615)), and murine CDH6 protein (mCDH6 ECD-his, conventionally synthesized; the mCDH6 ECD sequence was derived from Uniprot #P97326 (19-615)) were diluted with PBS to a final concentration of 1 μg/mL, and added to a 96-well ELISA plate at 100 μL/well. The plate was incubated at 4° C. overnight. The next day, the plate was washed 3 times with a plate washing solution (PBS+0.01% (v/v) Tween 20), and a blocking buffer (PBS+0.01% (v/v) Tween 20+2% (w/w) BSA) was added for blocking at room temperature for 2 h. The blocking buffer was discarded, and the plate was washed 3 times. The chimeric antibodies were diluted with 1% BSA+PBS (purchased from Cytiva, Cat. No. SH30264.01) and added to the 96-well plate at 50 μL/well. After incubation at 37° C. for 2 h, the plate was washed 3 times with a plate washing solution. […] The plate was incubated at 37° C. for 1 h and then washed 5 times with a plate washing solution. A TMB substrate (purchased from Seracare, Cat. No. 5120-0077) was added at 50 μL/well and incubated at room temperature for 10 min, then a stop solution (1.0 N HCl) was added at 50 μL/well. OD450 nm values were read using a microplate reader (Biotek). Analysis was performed by the GraphPad Prism software, data were fitted, and EC50 values were calculated. The chimeric antibodies tested all had strong binding to the human CDH6 protein, the monkey CDH6 protein, and the murine CDH6 protein.

[2] = biological target: T2, human CDH6 on tumor cells (OVCAR3 cells, PA-1 cells) (human, UniProt P55285 54-790); test: FACS, OVCAR3 cells, 4° C. arm of endocytosis assay, antibody diluted to 10 µg/mL
T2 sequence: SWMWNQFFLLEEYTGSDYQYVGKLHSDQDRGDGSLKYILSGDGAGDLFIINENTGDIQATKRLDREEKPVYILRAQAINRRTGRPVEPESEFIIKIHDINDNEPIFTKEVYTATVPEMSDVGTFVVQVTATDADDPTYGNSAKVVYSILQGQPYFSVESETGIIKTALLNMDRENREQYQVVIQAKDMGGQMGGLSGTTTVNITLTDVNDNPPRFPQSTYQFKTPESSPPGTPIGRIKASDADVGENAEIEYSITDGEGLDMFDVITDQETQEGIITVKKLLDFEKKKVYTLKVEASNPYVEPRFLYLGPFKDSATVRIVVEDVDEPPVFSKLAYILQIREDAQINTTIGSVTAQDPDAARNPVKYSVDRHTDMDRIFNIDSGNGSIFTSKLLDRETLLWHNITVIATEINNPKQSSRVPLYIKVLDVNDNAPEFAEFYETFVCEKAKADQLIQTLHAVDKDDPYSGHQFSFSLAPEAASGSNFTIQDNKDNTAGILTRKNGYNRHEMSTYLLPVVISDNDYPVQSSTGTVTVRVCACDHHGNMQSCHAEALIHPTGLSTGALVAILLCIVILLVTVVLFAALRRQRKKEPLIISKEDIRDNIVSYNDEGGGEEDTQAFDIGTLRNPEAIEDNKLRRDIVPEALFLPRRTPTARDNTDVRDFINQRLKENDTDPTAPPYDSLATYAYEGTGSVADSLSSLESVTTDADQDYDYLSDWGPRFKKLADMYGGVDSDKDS
Procedure: OVCAR3 cells were cultured until a confluence of 90% was reached, the medium was removed by pipetting, the cells were washed once with PBS, and then treated with an enzyme-free cell dissociation solution (Versene, purchased from Gibco, Cat. No. 15040-066) and the cells were collected. The cells were washed once with PBS, counted, resuspended to 2×10⁶ cells/mL in an FACS buffer (PBS+2% FBS), and then added to two 96-well plates at 50 μL/well. The chimeric antibodies were diluted with FACS buffer (PBS+2% FBS) to 10 μg/mL and separately added to the two 96-well plates at 50 μL/well, and the plates were incubated at 4° C. for 1 h. After the cells were washed 3 times with PBS, the cells were resuspended in an FACS buffer. One 96-well plate was incubated at 4° C. for 1 h, and the other 96-well plate was incubated at 37° C. for 1 h. […] After the plates were centrifuged and washed 2 times with PBS, the cells were resuspended in an FACS buffer. The mean fluorescence intensity (MFI) was measured using FACS Canton II (BD). The chimeric antibodies tested all had good endocytic activity.

[3] = biological target: T1, his-tagged human CDH6 extracellular …; test: ELISA, coated antigen; ELISA, hCDH6 ECD-his coated at 1 µg/mL, antibody in solution
Procedure: as §1

B1: CHI-CDH6-9 (antibody, human IgG1, kappa, V domains shown)
VH: QVQLQQPGAELVKPGASVKLSCKASGYTFTGYWMHWVRQRPGQGLEWIGEINPNNGGTNCNEQFKNKATLTVDKSSSTAYMQLSSLTSEDSAVFYCTISFGNYLFFDVWGAGTTVTVSS
VL: DIQMTQSPASLAASVGETITITCQASENIYFSLAWYQQKQGKSPQLLIYNANTLEDGVPSRFVGSGSGTQYSMKINSIQPEDTATYFCDQTYDFPWTFGGGTKLEIKR
notes: also called chimeric antibody of murine CDH6-9
EC50 [1]: 0.016 nM
Max OD450 [1]: 2.58 OD450
MFI_4° C. [2]: 11000 MFI

B2: CHI-CDH6-1 (antibody, human IgG1, kappa, V domains shown)
VH: QVQLQQPGAELVRPGSSVKLSCKASGYTFTNYWMHWVKQRPIEGLEWIGDIDPSHSETHYTQKFKDKATLTVDKSSSTAYMQLSSLTSEDSAVYYCARGDLGRFDYWGQGTTLTVSS
VL: DIVLTQSPASLAVSLGQRATISCRASESVSIHGTHLMHWYQQKSGQPPKLLIYAASNLESGVPARFSGSGSETDFTFNIHPVEEEDAATYFCQQSFEDPWTFGGGTKLEIKR
notes: also called CHI-hCDH6-1; CH1-CDH6-1
EC50 [1]: 0.04 nM
Max OD450 [1]: 2.23 OD450
MFI_4° C. [2]: 10600 MFI

B3: CHI-CDH6-10 (antibody, human IgG1, kappa, V domains shown)
VH: QVQLQQPGAELVKPGTSVKMSCKASGYTFTSDWIAWVKQRPGQGLEWIGDIYPGSGRTHNNEKFNFKATLTVDTSSNTAYMQLSSLTSEDSAVYFCARPMLGRFDYWGQGTTLTVSS
VL: B2 VL with S44P, F77L, W100F, G104S
notes: also called chimeric antibody of murine CDH6-10
EC50 [1]: 0.025 nM
Max OD450 [1]: 2.03 OD450
MFI_4° C. [2]: 10100 MFI

B4: CHI-CDH6-11 (antibody, human IgG1, kappa, V domains shown)
VH: QIQLQQSGPELVKPGASVRISCKASGYTFTDYYITWVKLRPGQGLEWIGWIYPGSVNIKYNEKFKGKATLTVDTSSSTAYMQLNSLTSEDSAVYFCARGGYSWFPYWGQGTLVTVSA
VL: NIVMTQSPKSMSMSVGERVTLSCKASENVHTYVSWYQQKPEQSPKLLFYGASTRNTGVPDRFTGSGSATDFTLTISSVQAEDLADYYCGQSYSYPYTFGSGTKLEIKR
notes: also called chimeric antibody of murine CDH6-11
EC50 [1]: 0.034 nM
Max OD450 [1]: 2.24 OD450
MFI_4° C. [2]: 10400 MFI

B5: NOV0712 (antibody, human IgG1, kappa, V domains shown)
VH: QVQLLESGGGLVQPGGSLRLSCAASGFTFSSHGMHWVRQAPGKGLEWVSVISGSGSNTGYADSVKGRFTISRDNSKNTLYLQMNSLRAEDTAVYYCARQWGSYAFDSWGQGTLVTVSS
VL: DIQMTQSPSSLSASVGDRVTITCRASQSISSYLNWYQQKPGKAPKLLIYAVSTLQSGVPSRFSGSGSGTDFTLTISSLQPEDFATYYCQQSGTFPPTTFGQGTKVEIKR
notes: Positive control, variable regions from WO2018212136A1; also called positive control anti-human CDH6 antibody
EC50 [1]: 0.043 nM
Max OD450 [1]: 2.32 OD450
MFI_4° C. [2]: 6520 MFI

B6: CHI-CDH6-14 (antibody, human IgG1, kappa, V domains shown)
VH: QIQLQQSGPELVKPGTSVKISCKASGYTFTDNYINWVRQRPGQGLEWIGWIYPGTGNSYYNEKFKGKATLTVDTSSSTAYMQFSSLTSEDSAVYLCASSYGDSFDYWGQGTTLTVSS
VL: DIQMTQTTSSLSASLGNRVTISCRASQDIRNYLNWYQQKPDGTFKLLISYTSRLHSGVPSRFSGSGSGTDYSLTVSNLEPEDIATYYCQQYSQLPWTFGGGSRLEIKR
notes: also called CHI-hCDH6-14; CH1-CDH6-14
MFI_4° C. [2]: 9230 MFI

B7: CHI-CDH6-6 (antibody, human IgG1, kappa, V domains shown)
VH: EVQLQQSGPELVKPGDSVKMSCKASGYTFTDYYMAWVRQSHRKSLEWIGYIFPNSGGTDYSQKFKGKATLTVDKSSSTVYMELHSLTSEDSAVYYCARELGADYGDYYAMDHWGQGTSVSVSS
VL: DIQMTQSPASLSASVGETVTITCRASENIDSYLAWYQQKQGKSPQLLVYSATLLADGVPSRFSGSGSGTQYSLKINSLKSEDVARYYCQHYYRTPPTFGSGTKLEIKR
notes: also called CHI-hCDH6-6; chimeric antibody of murine CDH6-6
EC50 [1]: 0.034 nM
Max OD450 [1]: 2.18 OD450
MFI_4° C. [2]: 9930 MFI

B8: CHI-CDH6-8 (antibody, human IgG1, kappa, V domains shown)
VH: EVQLQQSGPELVKPGDSVKMSCKASGYTFTDYYMAWIKQNHGKSLEWIGYIYPNNGGTDYNQKFRGKATLTVDKSSSAAYMELHSLTSEDSAVYYCAREIGTLYGDYYAMDYWGQGTSVTVSS
VL: B7 VL with S50T, K79Q, R93S
notes: also called chimeric antibody of murine CDH6-8
EC50 [1]: 0.033 nM
Max OD450 [1]: 2.31 OD450
MFI_4° C. [2]: 10100 MFI

B9: CHI-CDH6-2 (antibody, human IgG1, kappa, V domains shown)
VH: EVQLQQSGPELVKPGASVRISCKASGYTFTDYYMNWVKQSHGKSLEWIGDIDPNNANTTYNQKFKGKATLTVDKSSSTAYMELRSLTSEDSAVYSCASFGYDVEWFGYWGQGTLVTVSA
VL: QIVLTQSPALMSASPGEKVTMTCSASSSVSYMYWYQQKPRSSPKPWIYLTSNLASGVPARFSGSGSGTSYSLTISSMEAEDAATYYCQQWSSNPFTFGSGTKLEIKR
notes: also called chimeric antibody of murine CDH6-2
EC50 [1]: 0.027 nM
Max OD450 [1]: 2.07 OD450
MFI_4° C. [2]: 11100 MFI

B10: CHI-CDH6-13 (antibody, human IgG1, kappa, V domains shown)
VH: DVQLQESGPGLVKPSQSLSLTCSVTGYSITKDSYWNWIRQFPGSKLEWMGFISYDGSRHYNPSLKNRISITRDTSKNQFFLQLNSVTTEDTATYYCARRDYADYWGQGTTLTVSS
VL: B9 VL with S14F, S26T, M32I, S75N, M77L, N93I, F95Y, S99G
notes: also called chimeric antibody of murine CDH6-13
EC50 [1]: 0.009 nM
Max OD450 [1]: 2.62 OD450
MFI_4° C. [2]: 5970 MFI

B11: CHI-CDH6-3 (antibody, human IgG1, kappa, V domains shown)
VH: QVQLQQPGAELVKPGASVKLSCKASGYTFTSYWIHWVKQRPGQGLEWIGEINPSNGVTNCNENFKSKATLTVDKSSSTAYMQLSSLTSEDSAVYYCTIPNLLWWYFDVWGAGTTVTVSS
VL: DIQMTQSPASLSVSVGETVTITCRASENIYSNLAWYQQKQGKSPQLLVYEATNLADGVPSRFSGSGSGTQYSLKINSLQSEDFGSYYCQHFWGTLWTFGGGTKLEIKR
notes: also called CH1-CDH6-3; chimeric antibody of murine CDH6-3
EC50 [3]: 0.03 nM
MFI_4° C. [2]: 9280 MFI

B12: CHI-CDH6-4 (antibody, human IgG1, kappa, V domains shown)
VH: QVQLQQSGPELVKPGASVKISCKASGYAFSNFWMNWVKQRPGKGLEWIGWIYPGDGDTNYNGKFKDKATLTADKSSSTAYIQLSSLTSEDSAVYFCARLYDAWGFFDYWGQGTTLTVSS
VL: QIVLTQSPAIMSASPGQKVTITCSASSSVNYMHWYQQKLGSSPKLWIYDKSKLAPGVPARFSGSGSGTSYSLTISSMEAEDAASYFCHQWSSYPPMTFGGGTKLEIKR
notes: also called CH1-CDH6-4; chimeric antibody of murine CDH6-4
EC50 [3]: 0.053 nM
MFI_4° C. [2]: 9520 MFI
